CN117430709A (KANGWEI ZHONGHE ZHONGSHAN BIOLOGICAL PHARMACEUTICAL CO LTD; …, dated 2024)

T1: BCMA on multiple myeloma cell lines RPMI8226 (low BCMA) and U266 (high BCMA) (human, UniProt Q02223 1-184)
T1 construct: whole, on cells; endogenous expression; also called CD269; TNFRSF17
T1 sequence (looked up): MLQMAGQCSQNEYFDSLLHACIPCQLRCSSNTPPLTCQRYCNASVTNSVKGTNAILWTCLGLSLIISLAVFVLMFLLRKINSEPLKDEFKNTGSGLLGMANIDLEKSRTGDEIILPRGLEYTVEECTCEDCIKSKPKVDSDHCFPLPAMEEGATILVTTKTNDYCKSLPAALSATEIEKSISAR

B1: NbBCMA-5 (VHH)
VHH: QVQLVETGGGLVQAGGSLRLSCAASGTIFSVYNMGWFRQAPGKQRELVAAITKNGSTSYKDSVKGRFTISTDNAKNTVDLRMSSLKLGDTAVYFCAAWDWDKNQAYWGQGTQVTVSS
notes: Expressed in E. coli from PET30a(+); the supernatant of sonicated bacteria was used in flow cytometry; not shown: His tag from the PET30a(+) vector (detected with anti-his-FITC)
B2: NbBCMA-8 (VHH)
VHH: QVQLVESGGGLVQAGGSLRLSCAASTRTFSSYVMAWFRQVPGKEREFVASRACSGGTPYYADSVKGRFFISRDDAKNTVYLRMNSLKPEDTAVYYCAAASIGATQYDYWGQGTQVIVSS
notes: as for B1

Molecular target: T1, BCMA on multiple myeloma cell lines …
Experiment: flow cytometry on RPMI8226 cells (low BCMA), anti-his-FITC

Row | Binder | binding result
1 | B1 | binds
2 | B2 | binds
